Measurements: the supplement of paper PMC10567573
± gives the standard deviation.

Experiment: protein stability index of a GFP-peptide fusion (GPS, HEK-293T) (PSI 1-6); higher = more stable
Settings: c terminus: a fixed tail appended
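Also: 24-mer peptide tiles fused after GFP, lentivirally expressed, FACS-sorted into six equal bins by GFP/DsRed ratio, decoded by Illumina sequencing, PSI is the read-weighted mean bin number.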

What does the source list for EQIAERKRKMVSWEASSLGLVTAA [KMT2E]?
protein stability index (treatment: DMSO): 2.65 ± 0.45; protein stability index (treatment: MLN4924 1 uM, 8 h): 3.33 ± 0.76

For QSYFKTIEDFQQKILLTKSENARL [KRT36], which protein stability index (treatment: DMSO) is on record?
Its protein stability index is 3.05 ± 0.42.

What about the protein stability index (treatment: MLN4924 1 uM, 8 h) of the same sequence?
Its protein stability index is 2.77 ± 0.23.

Which protein stability index (treatment: DMSO) does the source give for AESRGHSKGWGRNYASIIRRDCMW [MYCL] here?
The protein stability index was 2.23 ± 0.2.

What about the protein stability index (treatment: MLN4924 1 uM, 8 h) of the same sequence?
The protein stability index was 2.61 ± 0.39.

Which protein stability index (treatment: DMSO) does the source give for RLVESLSTQIRALTEQQEQLRGQL [RASAL3] here?
Its protein stability index is 2.38 ± 0.21.

And the protein stability index (treatment: MLN4924 1 uM, 8 h)?
Its protein stability index is 2.34 ± 0.26.

With MQVDKKRVYLATDDPSLLKEAKTK [FUT8] as the sequence, how does the protein stability index (treatment: DMSO) read?
Its protein stability index is 4.06 ± 0.21.

And the protein stability index (treatment: MLN4924 1 uM, 8 h)?
The protein stability index was 3.92 ± 0.32.

For SRSESPPPLSDPKQAKVVARRESG [BRD3], which protein stability index (treatment: DMSO) is on record?
Its protein stability index is 5.5 ± 0.21.

What about the protein stability index (treatment: MLN4924 1 uM, 8 h) of the same sequence?
Its protein stability index is 5.24 ± 0.17.

Which protein stability index (treatment: DMSO) does the source give for NHDIRTANDGDYWRLLNPGEYVVT [CPXM2] here?
Its protein stability index is 2.96 ± 0.21.

What about the protein stability index (treatment: MLN4924 1 uM, 8 h) of the same sequence?
Its protein stability index is 3.25 ± 0.31.

Which protein stability index (treatment: DMSO) does the source give for PSNARGPILSRSTSTGSAASSGSN [SPRY1] here?
The protein stability index was 4.96 ± 0.17.

And the protein stability index (treatment: MLN4924 1 uM, 8 h)?
The protein stability index was 5.01 ± 0.12.

Which results are given for LYQRAPRNIHRHVILSEIKEAVAA [TCF25]?
protein stability index (treatment: DMSO): 2.75 ± 0.34; protein stability index (treatment: MLN4924 1 uM, 8 h): 2.7 ± 0.25

What does the source list for FEEYALVNQDILENKESWDKILAL [PRIM1]?
protein stability index (treatment: DMSO): 3.3 ± 0.31; protein stability index (treatment: MLN4924 1 uM, 8 h): 3.6 ± 0.45

What does the source list for LPSAQDINRLVGLQNTYMGYLDYR [GLT8D2]?
protein stability index (treatment: DMSO): 2.52 ± 0.28; protein stability index (treatment: MLN4924 1 uM, 8 h): 2.52 ± 0.38

Which protein stability index (treatment: DMSO) does the source give for YEKTPFDQLAFIEELFSLMVVNRL [EID1] here?
The protein stability index was 2.68 ± 0.36.

What about the protein stability index (treatment: MLN4924 1 uM, 8 h) of the same sequence?
Its protein stability index is 3.01 ± 0.43.

With TPHVYWAQRHRELYLRVELSDVQN [HACD3] as the sequence, how does the protein stability index (treatment: DMSO) read?
The protein stability index was 2.28 ± 0.14.

What about the protein stability index (treatment: MLN4924 1 uM, 8 h) of the same sequence?
Its protein stability index is 2.17 ± 0.24.

With SWASAQVQILCHTYWEHWTSQGQV [RTP4] as the sequence, how does the protein stability index (treatment: DMSO) read?
Its protein stability index is 2.8 ± 0.74.

What about the protein stability index (treatment: MLN4924 1 uM, 8 h) of the same sequence?
The protein stability index was 2.77 ± 0.75.

With VAITVEVKQEEDIKPPPPLVLNSQ [RAD54B] as the sequence, how does the protein stability index (treatment: DMSO) read?
The protein stability index was 3 ± 0.26.

And the protein stability index (treatment: MLN4924 1 uM, 8 h)?
Its protein stability index is 2.98 ± 0.24.

What does the source list for GVTAIIFCVALSDYDLVLAEDEEM [GNAI1]?
protein stability index (treatment: DMSO): 3.86 ± 0.17; protein stability index (treatment: MLN4924 1 uM, 8 h): 2.75 ± 0.9

Which results are given for PSPSTLEPHPRPLLQRELMVPGTR [TNXB]?
protein stability index (treatment: DMSO): 4.4 ± 0.24; protein stability index (treatment: MLN4924 1 uM, 8 h): 4.36 ± 0.59

With VCTKYNLRITSGVVVCQCGLSIPS [RPAIN] as the sequence, how does the protein stability index (treatment: DMSO) read?
Its protein stability index is 2.56 ± 0.5.

And the protein stability index (treatment: MLN4924 1 uM, 8 h)?
Its protein stability index is 2.45 ± 0.55.

Which protein stability index (treatment: DMSO) does the source give for YQEIFQQLQRSWVKMDQKSKHLKE [TRIM43] here?
Its protein stability index is 2.41 ± 0.32.

And the protein stability index (treatment: MLN4924 1 uM, 8 h)?
The protein stability index was 2.6 ± 0.32.

Which results are given for IVIQTYYRQWHAKIFVENLRRQKS [IQUB]?
protein stability index (treatment: DMSO): 2.453 ± 0.011; protein stability index (treatment: MLN4924 1 uM, 8 h): 3.12 ± 0.52

With SLRIALSEHLKQRREVAKTVFCLV [EDNRA] as the sequence, how does the protein stability index (treatment: DMSO) read?
Its protein stability index is 1.93 ± 0.34.

What about the protein stability index (treatment: MLN4924 1 uM, 8 h) of the same sequence?
The protein stability index was 2.26 ± 0.3.

For SKARTKSLLGDDVFSTMAGLEEAD [FBF1], which protein stability index (treatment: DMSO) is on record?
Its protein stability index is 4.87 ± 0.29.

What about the protein stability index (treatment: MLN4924 1 uM, 8 h) of the same sequence?
The protein stability index was 5.05 ± 0.2.

For ISSMADFWDFAQGPLLDSLYWTKW [PKD2L1], which protein stability index (treatment: DMSO) is on record?
The protein stability index was 2.85 ± 1.3.

And the protein stability index (treatment: MLN4924 1 uM, 8 h)?
Its protein stability index is 2.53 ± 1.6.

Which protein stability index (treatment: DMSO) does the source give for ELDELQLCKNCFYLSNARPDNWFC [ZMYND11] here?
Its protein stability index is 2.01 ± 0.25.

And the protein stability index (treatment: MLN4924 1 uM, 8 h)?
The protein stability index was 2.3 ± 0.62.

For KKDTGHIYAMKILRKSDMLEKEQV [STK38L], which protein stability index (treatment: DMSO) is on record?
The protein stability index was 3.36 ± 0.39.

And the protein stability index (treatment: MLN4924 1 uM, 8 h)?
The protein stability index was 3.54 ± 0.21.

What does the source list for ARERAKLQIELGKCKAEHDQLLLN [LMNB1]?
protein stability index (treatment: DMSO): 3.47 ± 0.098; protein stability index (treatment: MLN4924 1 uM, 8 h): 3.14 ± 0.1

With CAVLLSAVQAQAGWLQHDFGHLSV [FADS1] as the sequence, how does the protein stability index (treatment: DMSO) read?
Its protein stability index is 3.25 ± 0.5.

What about the protein stability index (treatment: MLN4924 1 uM, 8 h) of the same sequence?
The protein stability index was 3.3 ± 0.65.

With GELRRRPGDMKTKMELLILETQAQ [CPOX] as the sequence, how does the protein stability index (treatment: DMSO) read?
Its protein stability index is 3.34 ± 0.18.

What about the protein stability index (treatment: MLN4924 1 uM, 8 h) of the same sequence?
Its protein stability index is 3.43 ± 0.26.

Which protein stability index (treatment: DMSO) does the source give for AGAPPPSGSAVSTAPQQKPIGKIS [SRPK2] here?
The protein stability index was 5.01 ± 0.26.

What about the protein stability index (treatment: MLN4924 1 uM, 8 h) of the same sequence?
The protein stability index was 5.04 ± 0.24.

Which protein stability index (treatment: DMSO) does the source give for CYTFSVLITFDNKAHSGRIPISLE [MCOLN1] here?
Its protein stability index is 3.58 ± 0.41.

And the protein stability index (treatment: MLN4924 1 uM, 8 h)?
Its protein stability index is 3.3 ± 0.62.

Which protein stability index (treatment: DMSO) does the source give for KWRKVGRSLQRGCRALRDPALDSL [TRADD] here?
The protein stability index was 2.19 ± 0.16.

And the protein stability index (treatment: MLN4924 1 uM, 8 h)?
Its protein stability index is 2.54 ± 0.13.

Which protein stability index (treatment: DMSO) does the source give for PAPCADGPAGGLADLSSGSSGEDD [PWWP2B] here?
Its protein stability index is 5.51 ± 0.23.

What about the protein stability index (treatment: MLN4924 1 uM, 8 h) of the same sequence?
Its protein stability index is 5.66 ± 0.15.

Which protein stability index (treatment: DMSO) does the source give for HPWKWSNGKEFNNWFNVTGSDKCV [CD69] here?
The protein stability index was 2.58 ± 0.53.

What about the protein stability index (treatment: MLN4924 1 uM, 8 h) of the same sequence?
The protein stability index was 2.46 ± 0.17.

Which protein stability index (treatment: DMSO) does the source give for RRERELQHAALGGTATRQNNWPPL [SCAMP3] here?
The protein stability index was 3.54 ± 0.16.

What about the protein stability index (treatment: MLN4924 1 uM, 8 h) of the same sequence?
Its protein stability index is 3.82 ± 0.21.

Which protein stability index (treatment: DMSO) does the source give for FTDCSFFVRGQEFKAHKSVLAARS [SPOPL] here?
Its protein stability index is 2.95 ± 0.69.

What about the protein stability index (treatment: MLN4924 1 uM, 8 h) of the same sequence?
Its protein stability index is 2.61 ± 0.57.

What does the source list for VAVNNIGRGPPSEPVLTQTSEQAP [PTPRD]?
protein stability index (treatment: DMSO): 4.78 ± 0.2; protein stability index (treatment: MLN4924 1 uM, 8 h): 5.02 ± 0.49

Which results are given for LGNFFTTLRVVHHKFHSQRHGSKK [TMEM120A]?
protein stability index (treatment: DMSO): 2.39 ± 0.21; protein stability index (treatment: MLN4924 1 uM, 8 h): 2.54 ± 0.64

Which protein stability index (treatment: DMSO) does the source give for ESLSSQLSNLQKESRACLERIQEL [LMNB1] here?
Its protein stability index is 4.28 ± 0.14.

And the protein stability index (treatment: MLN4924 1 uM, 8 h)?
The protein stability index was 4.38 ± 0.13.

For DFHQGLLSFYNARTKQVLHTFKTR [FSD1], which protein stability index (treatment: DMSO) is on record?
The protein stability index was 2.2 ± 0.16.

And the protein stability index (treatment: MLN4924 1 uM, 8 h)?
The protein stability index was 2.28 ± 0.31.

For CCHRSQKGFPGCKLGLHDNHWVPA [FBXO34], which protein stability index (treatment: DMSO) is on record?
Its protein stability index is 2.2 ± 0.39.

What about the protein stability index (treatment: MLN4924 1 uM, 8 h) of the same sequence?
Its protein stability index is 2.16 ± 0.34.

Which protein stability index (treatment: MLN4924 1 uM, 8 h) does the source give for SESEQEFLYKTAGGLIYWIGLTKA [CD207] here?
The protein stability index was 2.11 ± 0.59.

With CTSRIFVQKSIYSEFLKRFVEATR [ALDH8A1] as the sequence, how does the protein stability index (treatment: DMSO) read?
Its protein stability index is 2.36 ± 0.52.

And the protein stability index (treatment: MLN4924 1 uM, 8 h)?
The protein stability index was 2.34 ± 0.5.

For KEHYLTFEKSRYETYIHLLAMKIK [PSD2], which protein stability index (treatment: DMSO) is on record?
The protein stability index was 3.28 ± 0.76.

And the protein stability index (treatment: MLN4924 1 uM, 8 h)?
The protein stability index was 2.73 ± 0.94.

With DGNSLLSSIECYDPIIDSWEVVTS [KLHL12] as the sequence, how does the protein stability index (treatment: DMSO) read?
The protein stability index was 3.29 ± 0.33.

What about the protein stability index (treatment: MLN4924 1 uM, 8 h) of the same sequence?
The protein stability index was 3.47 ± 0.47.

What does the source list for TSRRPSGTGTGPEDGRPSLGSPYG [PDLIM4]?
protein stability index (treatment: DMSO): 4.67 ± 0.21; protein stability index (treatment: MLN4924 1 uM, 8 h): 4.67 ± 0.2
